Experimental findings from patent publication US7897568B2, “Compositions for treatment of cancer” (priority 2006, dated 2011) are described below.

In test [1] the test system is MCF7-Neo cells. Put plainly: Microinjection of ANK peptide then nocodazole, mitotic arrest/apoptosis count. Type of test: cell-based. The settings on record: cells without ANK injection, 0.5 μM nocodazole for 24 hours. Here is the method:
ANK peptide interference with SNCG-BubR1 association in vivo was examined in a stable breast cancer cell line MCF7 expressing SNCG (MCF7-SNCG) and a control SNCG negative cell line (MCF7-Neo). […] Significant numbers of cells survived after treatment with the ANK peptide by microinjection in both cell lines. After microinjection, cells were treated with 0.5 μM nocodazole for 24 hours and the fraction of mitotically arrested cells was counted.
MCF7-SNCG and MCF-Neo were grown to 80% confluence, split with trypsin and seeded on a 22 mm glass coverslip treated with human fibronectin ([…]) into 60 mm diameter dishes containing cell maintenance medium for 24 hours and utilized for the experiments. In initial experiments ANK peptide (5, 10 or 100 μM) was microinjected. In all further experiment to date, ANK peptide (10 μM), together with goat IgG (1 mg/ml) and fluoroscein isothiocyanate (FITC, 5 mg/ml; Molecular Probes) into the MCF7-SNCG or MCF7-Neo cells under a 40× magnification of phase contrast microscope (Carl Zeiss Inc.) using a pressure injection system (Femtojet, Eppendorf). To exclude the possibility that microinjection might affect cell cycle and proliferation, MCF7-Neo and MCF7-SNCG were microinjected with goat IgG as a control. Injections were done at a constant flow setup by varying the injection pressure Pc between 40-70 units. The microscope stage was kept at 37° C. using thermal control device (Tempcontrol-37-2 Digital). Approximately 25-30 cells were microinjected in each experiment (n=3). Cells were quickly incubated to revive. […]
For the immunofluorescence experiments, cells were fixed in 0.5% buffered paraformaldehyde for 8 minutes at room temperature. […] Cells were scored by identifying cells containing Alexa Fluor 488 excited at 488 nm, and the emission measured at 500-535 nm; DAPI was excited at 345 nm and the emission was measured at 445 nm. […] Mitotic index was determined as described by Gupta et al. (Oncogene 2003 22:7593-7599) and Inaba et al. Breast Cancer Res. Treat. […]

The target of test [2] is SNCG (Homo sapiens, UniProt O76070). Put plainly: Co-immunoprecipitation of EGFP-ANK deletion peptides with anti-SNCG antibody. Particulars: MCF7-neo and MCF7-SNCG clones transfected with pEGFP-ANK deletion peptide plasmids. Type of test: binding. On the set-up: expressed in transfected cells; host or cells: MCF7-SNCG (MCF7 stably expressing SNCG).
The target of test [3] is T1, glutathione S-transferase (GST)-SNCG fusion protein (human, UniProt O76070 1-127).
T1 construct: Expressed in E. coli BL21 (DE3), eluted with reduced glutathione; Used as analyte in SPR, in the cell in ITC and as bait in the GST pull-down; not shown: glutathione S-transferase tag encoded by the pGEX-4T-3 vector (Amersham Biosciences); vector linker with thrombin site between GST and the BamH1 site
Description: ITC, ANK peptide titrated into GST-SNCG, sequential binding site model, first binding site.

Test [4] has as its target T1, glutathione S-transferase (GST)-SNCG …. Description: SPR, ANK peptide immobilised, GST-SNCG analyte, global fit, two-phase reaction (conformation change) model, kd2. On the technique in general: Surface plasmon resonance follows binding to a sensor surface in real time, without labels.
The target in test [5] is T2, glutathione S-transferase (GST) (UniProt P08515 1-218 = GST).
T2 construct: Control for GST-SNCG in SPR
Description: SPR (BIACORE 3000), ANK peptide immobilised, GST as analyte.

In test [6] the target is T1, glutathione S-transferase (GST)-SNCG …. Description: SPR, ANK peptide immobilised, GST-SNCG analyte, global fit, two-phase reaction (conformation change) model, kd1.
For test [7] the target is unchanged. Description: SPR, ANK peptide immobilised, GST-SNCG analyte, apparent overall Kd.
In test [8] the target is T3, synuclein-gamma (SNCG), recombinant, released from GST-SNCG by thrombin (human, UniProt O76070 1-127).
T3 construct: 15N-labelled for NMR; also called native SNCG; Breast Cancer Specific Gene 1
Put plainly: intrinsic tyrosine fluorescence of 30 µM SNCG titrated with ANK peptide.

For test [9], the target named is SNCG expressed in cells (MCF7-SNCG, T47D, or COS7 transfected with pCI-SNCG) (UniProt O76070 1-127, limits assumed). Put plainly: cell-based or functional assay.

Where no end group is shown, it is not given here.

Chain of SNCG expressed in cells (MCF7-SNCG, T47D, or COS7 transfected with pCI-SNCG) (O76070 whole entry, stated change not applied): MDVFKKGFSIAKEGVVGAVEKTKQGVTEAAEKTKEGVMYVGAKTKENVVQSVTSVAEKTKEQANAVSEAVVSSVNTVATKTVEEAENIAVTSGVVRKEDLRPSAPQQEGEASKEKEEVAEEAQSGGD
T1 sequence (O76070 whole entry, the tested form may be a part): as the sequence (O76070 whole entry, stated change not applied) above
Chain of SNCG (O76070 whole entry, the tested form may be a part): as the sequence (O76070 whole entry, stated change not applied) above
T2 sequence (P08515 whole entry): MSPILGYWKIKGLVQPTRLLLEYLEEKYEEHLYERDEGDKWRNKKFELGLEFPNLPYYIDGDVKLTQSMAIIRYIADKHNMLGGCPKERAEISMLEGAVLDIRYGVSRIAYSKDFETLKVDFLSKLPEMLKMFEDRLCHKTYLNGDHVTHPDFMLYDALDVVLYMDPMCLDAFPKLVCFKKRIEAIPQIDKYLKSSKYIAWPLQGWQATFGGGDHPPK
T3 sequence (O76070 whole entry): as the sequence (O76070 whole entry, stated change not applied) above

Regarding `COC(=O)Nc1nc2ccc(C(=O)c3cccs3)cc2[nH]1` [nocodazole, reference compound], the “degree of mitotic arrest in MCF7-Neo cells as compared to MCF7-SNCG cells” value in [1] was “significantly higher degree of mitotic arrest”.

On to “EGFP-ANK deletion peptide P12: EGFP fusion of deletion peptide P12 GNSALHVASQHG, expressed from pEGFP-C2 plasmid in cells (not fully specified (N-terminus); also: EGFP fusion protein (recombinant))”, for which the “interaction with SNCG by co-IP” value in [2] was “identified to interact”.

As to “EGFP-ANK deletion peptide P8: EGFP fusion of deletion peptide P8 GANVTMQN, expressed from pEGFP-C2 plasmid in cells (not fully specified (N-terminus); also: EGFP fusion protein (recombinant))”, in test [2], the “interaction with SNCG by co-IP” value is on record as “identified to interact”.

B1: ANK peptide KGNSALHVASQHGHLGCIQTLVRYGANVTMQNHG (SEQ ID NO:1) (peptide)
peptide: Ac-KGNSALHVASQHGHLGCIQTLVRYGANVTMQNHG-NH2
notes: For SPR it was immobilised on a CM5 chip by ligand thiol coupling; also called ankyrin repeat-like peptide
In general, koff refers to the rate constant with which the complex falls apart. Read a high koff as fast dissociation. In the case of B1, the Kd in test [3] was 70 µM; in [7], 73.4 µM; in [8], about 100 µM. The ΔH in test [3] came to 2.17 kcal/mol. The koff is 0.000802 s⁻¹ in [4] and 0.014 s⁻¹ in test [6]. Also, the binding result in test [5] was “no binding”.

B2: enhanced green fluorescent protein (EGFP)-ANK fusion protein (other, not shown: large carriers)
chain: KGNSALHVASQHGHLGCIQTLVRYGANVTMQNHG
modifications: not fully specified (N-terminus); also: EGFP fusion protein (recombinant)
On to B2, for which, in [9], the “apoptotic cell populations (DAPI staining) after paclitaxel” value came out at 5 fold; the “apoptotic/dead cell population, flow cytometric cell cycle analysis after 0.5 µM paclitaxel, MCF7-SNCG cells” value is about 4 fold; the “positive phosphorylated histones (anti-phospho-H3 staining, flow cytometry), MCF7-SNCG cells” value came out at 3.5 fold.
